In paper doi:10.1101/2025.09.05.674453:

Columns and labels:
[1] = biological target: Lysine-specific gingipain (Kgp), purified (Porphyromonas gingivalis) (UniProt Q51817); test: progress curve analysis of protease inhibition
[2] = biological target: Thiol protease (Tpr) (Porphyromonas gingivalis) (UniProt P25806); test: progress curve analysis of protease inhibition
[3] = biological target: Lysine-specific gingipain (Kgp), purified (Porphyromonas gingivalis) (UniProt Q51817); test: titration of residual protease activity
[4] = biological target: Thiol protease (Tpr) (Porphyromonas gingivalis) (UniProt P25806); test: titration of residual protease activity
[5] = biological target: Arginine-specific gingipain RgpB (Porphyromonas gingivalis) (UniProt P95493); test: progress curve analysis of protease inhibition
UniProt P95493, sequence (P95493 25-736): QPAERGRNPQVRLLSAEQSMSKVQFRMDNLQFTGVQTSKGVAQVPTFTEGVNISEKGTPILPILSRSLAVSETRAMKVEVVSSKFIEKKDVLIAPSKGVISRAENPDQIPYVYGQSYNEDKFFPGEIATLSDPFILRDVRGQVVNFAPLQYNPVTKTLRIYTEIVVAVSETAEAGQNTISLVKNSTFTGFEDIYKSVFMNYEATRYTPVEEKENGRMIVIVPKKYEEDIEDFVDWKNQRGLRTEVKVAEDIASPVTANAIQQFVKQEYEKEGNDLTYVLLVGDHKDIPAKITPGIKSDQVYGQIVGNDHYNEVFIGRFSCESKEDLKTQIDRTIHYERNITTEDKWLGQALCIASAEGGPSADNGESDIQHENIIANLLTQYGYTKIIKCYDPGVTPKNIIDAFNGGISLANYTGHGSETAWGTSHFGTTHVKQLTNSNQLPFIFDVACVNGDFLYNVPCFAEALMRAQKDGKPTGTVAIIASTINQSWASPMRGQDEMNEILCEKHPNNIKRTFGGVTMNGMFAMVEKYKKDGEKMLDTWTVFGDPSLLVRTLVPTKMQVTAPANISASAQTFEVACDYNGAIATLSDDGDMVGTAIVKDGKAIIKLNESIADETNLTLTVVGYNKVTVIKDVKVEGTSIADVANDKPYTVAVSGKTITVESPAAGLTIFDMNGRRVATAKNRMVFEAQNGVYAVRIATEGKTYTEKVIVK

[6] = biological target: Arginine-specific gingipain RgpB (Porphyromonas gingivalis) (UniProt P95493); test: titration of residual protease activity

UniProt Q51817, sequence (Q51817 25-1732): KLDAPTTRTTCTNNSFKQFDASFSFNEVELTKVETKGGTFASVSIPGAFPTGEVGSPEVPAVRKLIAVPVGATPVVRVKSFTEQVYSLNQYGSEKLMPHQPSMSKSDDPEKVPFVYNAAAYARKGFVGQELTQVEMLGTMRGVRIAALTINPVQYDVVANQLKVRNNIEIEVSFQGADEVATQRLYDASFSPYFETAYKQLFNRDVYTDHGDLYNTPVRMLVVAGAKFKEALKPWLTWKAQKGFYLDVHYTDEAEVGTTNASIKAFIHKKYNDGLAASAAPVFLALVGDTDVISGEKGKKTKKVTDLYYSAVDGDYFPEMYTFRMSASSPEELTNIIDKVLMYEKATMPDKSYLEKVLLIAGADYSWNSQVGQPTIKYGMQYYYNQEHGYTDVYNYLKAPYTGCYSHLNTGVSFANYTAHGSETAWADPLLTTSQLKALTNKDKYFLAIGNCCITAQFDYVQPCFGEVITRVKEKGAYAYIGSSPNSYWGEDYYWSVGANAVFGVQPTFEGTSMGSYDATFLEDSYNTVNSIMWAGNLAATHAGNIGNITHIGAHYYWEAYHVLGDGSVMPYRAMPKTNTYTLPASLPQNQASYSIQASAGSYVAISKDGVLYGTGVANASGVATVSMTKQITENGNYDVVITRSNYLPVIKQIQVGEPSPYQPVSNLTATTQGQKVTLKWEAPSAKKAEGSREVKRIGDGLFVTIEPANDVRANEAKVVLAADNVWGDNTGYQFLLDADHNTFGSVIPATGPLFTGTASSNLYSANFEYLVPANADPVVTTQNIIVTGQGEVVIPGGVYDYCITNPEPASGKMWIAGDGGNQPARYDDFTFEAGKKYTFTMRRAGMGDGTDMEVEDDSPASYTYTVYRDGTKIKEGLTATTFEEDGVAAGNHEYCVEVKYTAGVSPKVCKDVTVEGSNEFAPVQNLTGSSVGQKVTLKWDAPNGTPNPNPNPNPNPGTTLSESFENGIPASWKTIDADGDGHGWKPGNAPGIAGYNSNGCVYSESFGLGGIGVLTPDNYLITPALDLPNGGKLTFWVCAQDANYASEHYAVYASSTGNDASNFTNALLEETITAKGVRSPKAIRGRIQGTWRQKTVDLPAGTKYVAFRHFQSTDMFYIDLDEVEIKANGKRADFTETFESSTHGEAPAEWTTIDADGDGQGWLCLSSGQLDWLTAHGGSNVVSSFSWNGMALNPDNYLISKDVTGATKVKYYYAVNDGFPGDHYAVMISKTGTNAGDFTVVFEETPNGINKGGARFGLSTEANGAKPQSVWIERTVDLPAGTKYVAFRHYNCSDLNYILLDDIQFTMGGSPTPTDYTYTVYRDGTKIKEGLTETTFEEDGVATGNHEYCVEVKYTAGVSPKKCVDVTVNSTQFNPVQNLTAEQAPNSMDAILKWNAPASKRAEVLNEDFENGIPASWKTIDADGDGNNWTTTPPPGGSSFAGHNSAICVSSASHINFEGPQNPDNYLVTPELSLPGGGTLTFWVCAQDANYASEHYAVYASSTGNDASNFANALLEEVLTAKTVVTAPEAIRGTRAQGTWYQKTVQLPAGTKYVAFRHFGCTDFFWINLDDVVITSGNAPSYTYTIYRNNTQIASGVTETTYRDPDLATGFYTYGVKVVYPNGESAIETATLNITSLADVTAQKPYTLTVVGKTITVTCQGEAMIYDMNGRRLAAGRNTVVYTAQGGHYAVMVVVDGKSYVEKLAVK
UniProt P25806, sequence (P25806 whole entry): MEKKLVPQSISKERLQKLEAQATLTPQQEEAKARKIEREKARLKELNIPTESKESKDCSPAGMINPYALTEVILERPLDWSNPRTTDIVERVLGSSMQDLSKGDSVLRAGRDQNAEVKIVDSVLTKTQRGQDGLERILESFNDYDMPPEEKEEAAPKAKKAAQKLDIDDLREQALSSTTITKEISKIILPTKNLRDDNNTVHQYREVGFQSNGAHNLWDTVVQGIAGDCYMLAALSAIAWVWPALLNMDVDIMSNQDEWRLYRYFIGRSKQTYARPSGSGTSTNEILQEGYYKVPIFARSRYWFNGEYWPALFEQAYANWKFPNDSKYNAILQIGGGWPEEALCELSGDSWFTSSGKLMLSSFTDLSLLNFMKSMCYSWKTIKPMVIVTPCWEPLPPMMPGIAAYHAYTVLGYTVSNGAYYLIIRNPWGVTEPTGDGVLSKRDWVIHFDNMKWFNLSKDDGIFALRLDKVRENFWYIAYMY

## Recombinant wild-type miropin (VKT-mir) (natural protein)
[1]
  kon: 220000 M⁻¹ s⁻¹
[2]
  kon: 2500 M⁻¹ s⁻¹
[3]
  stoichiometry of inhibition (SI): 1.9
[4]
  stoichiometry of inhibition (SI): 9.3

## RVK-miropin (natural protein)
[5]
  kon: 740000 M⁻¹ s⁻¹
[1]
  kon: 330000 M⁻¹ s⁻¹
[6]
  stoichiometry of inhibition (SI): 1.7
[3]
  stoichiometry of inhibition (SI): 1.7
